Experimental data taken from US20020081718, “POLYPEPTIDE, AND A DNA SEQUENCE TO WHICH A PROTEIN CONTAINING THE POLYPETIDE BINDS” (published 2002).

T1: hGCMa N-terminal fragment (Homo sapiens, UniProt Q9NP62 SEQ:1-171)
T1 chain: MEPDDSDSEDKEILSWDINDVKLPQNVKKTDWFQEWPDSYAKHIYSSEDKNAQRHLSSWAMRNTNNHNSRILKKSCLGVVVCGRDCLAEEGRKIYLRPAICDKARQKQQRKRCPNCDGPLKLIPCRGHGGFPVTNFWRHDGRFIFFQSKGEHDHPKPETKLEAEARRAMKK

T2: GCM N243 (MBP fusion) (Drosophila, UniProt Q27403 SEQ:1-243)
T2 chain: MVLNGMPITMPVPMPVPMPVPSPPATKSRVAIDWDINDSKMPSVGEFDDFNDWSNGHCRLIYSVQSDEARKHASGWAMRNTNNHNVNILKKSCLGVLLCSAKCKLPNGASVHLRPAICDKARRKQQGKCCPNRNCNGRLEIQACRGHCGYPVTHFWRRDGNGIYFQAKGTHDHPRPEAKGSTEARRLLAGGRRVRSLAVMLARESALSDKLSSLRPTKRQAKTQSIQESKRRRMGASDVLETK

B1: competitor a with GCM site (dsDNA)
DNA 1: TGTGTGGAATTGTGAGCGGACCTACCCGCATTACGGGTTTTCCCAGTCACGACG
DNA 2: CGTCGTGACTGGGAAAACCCGTAATGCGGGTAGGTCCGCTCACAATTCCACACA
B2: competitor b without GCM site (dsDNA)
DNA 1: TGTGTGGAATTGTGAGCGGATATACTAATTTGTTAGGTTTTCCCAGTCACGACG
DNA 2: CGTCGTGACTGGGAAAACCTAACAAATTAGTATATCCGCTCACAATTCCACACA

Experiments:
[1] = target: T1, hGCMa N-terminal fragment; experiment: competition; results stated similar to those of GCM
Experimental: Gel shift assays and competition assays were carried out in the same manner as above by using proteins obtained by causing expression of DNA fragments of up to the 171-st amino acid residue of hGCMa, giving results similar to those of GCM.

GCM N243 (MBP fusion) [2] = target: T2, GCM N243 (MBP fusion); experiment: competition; dose-dependent competition of labeled 200 bp repo fragment, 1-1000x; conditions: tags: MBP fusion (pMAL, E. coli)
GCM N243 (MBP fusion) [3] = target: T2, GCM N243 (MBP fusion); experiment: competition; no competition; conditions: tags: MBP fusion (pMAL, E. coli)

Binder	binding result [1]	binding result (GCM N243 (MBP fusion) [2])	binding result (GCM N243 (MBP fusion) [3])
B1	binds	binds	–
B2	no binding	–	no binding
